Results reported in paper PMC3637500.

B1: Myc-tagged full-length Gab1 (wild type) [mouse] / GST-PTP1B-D181A (substrate-trapping mutant of PTP1B, GST fusion protein) [mouse] (parent)
chain 1: MSGGEVVCSGWLRKSPPEKKLKRYAWKRRWFVLRSGRLTGDPDVLEYYKNDHAKKPIRIIDLNLCQQVDAGLTFNKKEFENSYIFDINTIDRIFYLVADSEEDMNKWVRCICDICGFNPTEEDPVKPLTGSSQAPVDSPFAISTAPASSQMEASSVALPPPYQVISLPPHPDTLGLQDDPQDYLLLINCQSKKPEPNRTLFDSAKPTFSETDCNDNVPSHQTPASSQSKHGMNGFFQQQMMYDCPPSRLTSVSGESSLYNLPRSYSHDVLPKESPSSTEADGELYTFNTPSGTAGVETQMRHVSISYDIPPTPGNTYQIPRTFPESTLGQSSKLDTIPDIPPPRPPKPHPTHDRSPVETCGVPRTASDTDSSYCIPPPAGMTPSRSNTISTVDLNKLRKDASSQDCYDIPRTFPSDRSSSLEGFHSQYKIKSVLTAGGVSGEELDENYVPMNPNSPPRQHSGSFTEPIQEPNYVPMTPGTFDFSSFGMQVPPPAHMGFRSSPKTPPRRPVPVADCEPPPVDRNLKPDRKVKPAPLDIKPLSEWEELQAPVRSPITRSFARDSSRFPMSPRPDSVHSTTSSSDSHDSEENYVPMNPNLSGEDPNLFASNSLDGGSSPMNKPKGDKQVEYLDLDLDSGKSTPPRKQKSSGSGSSMADERVDYVVVDQQKTLALKSTREAWTDGRQSTESETPTKNVK
chain 2: MEMEKEFEEIDKAGNWAAIYQDIRHEASDFPCKVAKLPKNKNRNRYRDVSPFDHSRIKLHQEDNDYINASLIKMEEAQRSYILTQGPLPNTCGHFWEMVWEQKSRGVVMLNRIMEKGSLKCAQYWPQQEEKEMVFDDTGLKLTLISEDVKSYYTVRQLELENLTTKETREILHFHYTTWPAFGVPESPASFLNFLFKVRESGSLSLEHGPIVVHCSAGIGRSGTFCLADTCLLLMDKRKDPSSVDIKKVLLEMRRFRMGLIQTADQLRFSYLAVIEGAKFIMGDSSVQDQWKELSREDLDLPPEHVPPPPRPPKRTLEPHNGKCKELFSSHQWVSEETCGDEDSLAREEGRAQSSAMHSVSSMSPDTEVRRRMVGGGLQSAQASVPTEEELSSTEEEHKAHWPSHWKPFLVNVCMATLLATGAYLCYRVCFH

Variants of: B1
Assay: GST pull-down, anti-Myc immunoblot densitometry
Conditions: with GST-PTP1B-D181A (substrate-trapping mutant of PTP1B, GST fusion protein) [mouse]; Gab1 expressed in HEK-293 T cells, pervanadate treatment; normalized to lysate loading control; parent: 100; read off a plot

Row | Variant | percent of parent
1 | chain 1 Y473F | 270%
2 | chain 1 Y373F | 200%
3 | chain 1 Y407F | 160%
4 | chain 1 Y660F | 150%
5 | chain 1 Y628F | 240%
6 | chain 1 Y590F | 310%
7 | chain 1 Y448F | 170%
8 | chain 1 Y285F | 180%
